Results reported in publication PMC4861432, “Naturally Occurring Isoleucyl-tRNA Synthetase without tRNA-dependent Pre-transfer Editing” (The Journal of Biological Chemistry, 2016).

Legend:
SgIleRS = molecular target: T1, SgIleRS (Streptomyces griseus, UniProt B1W0J8); test: ATP-PPi exchange inhibition, global fit; format: biochemical
T1 construct: gene ileS; ileS from genomic DNA in pET28b, E. coli BL21(DE3), Ni-NTA purified (His tag), ZnCl2 added during growth
T1 sequence (B1W0J8 1-1047): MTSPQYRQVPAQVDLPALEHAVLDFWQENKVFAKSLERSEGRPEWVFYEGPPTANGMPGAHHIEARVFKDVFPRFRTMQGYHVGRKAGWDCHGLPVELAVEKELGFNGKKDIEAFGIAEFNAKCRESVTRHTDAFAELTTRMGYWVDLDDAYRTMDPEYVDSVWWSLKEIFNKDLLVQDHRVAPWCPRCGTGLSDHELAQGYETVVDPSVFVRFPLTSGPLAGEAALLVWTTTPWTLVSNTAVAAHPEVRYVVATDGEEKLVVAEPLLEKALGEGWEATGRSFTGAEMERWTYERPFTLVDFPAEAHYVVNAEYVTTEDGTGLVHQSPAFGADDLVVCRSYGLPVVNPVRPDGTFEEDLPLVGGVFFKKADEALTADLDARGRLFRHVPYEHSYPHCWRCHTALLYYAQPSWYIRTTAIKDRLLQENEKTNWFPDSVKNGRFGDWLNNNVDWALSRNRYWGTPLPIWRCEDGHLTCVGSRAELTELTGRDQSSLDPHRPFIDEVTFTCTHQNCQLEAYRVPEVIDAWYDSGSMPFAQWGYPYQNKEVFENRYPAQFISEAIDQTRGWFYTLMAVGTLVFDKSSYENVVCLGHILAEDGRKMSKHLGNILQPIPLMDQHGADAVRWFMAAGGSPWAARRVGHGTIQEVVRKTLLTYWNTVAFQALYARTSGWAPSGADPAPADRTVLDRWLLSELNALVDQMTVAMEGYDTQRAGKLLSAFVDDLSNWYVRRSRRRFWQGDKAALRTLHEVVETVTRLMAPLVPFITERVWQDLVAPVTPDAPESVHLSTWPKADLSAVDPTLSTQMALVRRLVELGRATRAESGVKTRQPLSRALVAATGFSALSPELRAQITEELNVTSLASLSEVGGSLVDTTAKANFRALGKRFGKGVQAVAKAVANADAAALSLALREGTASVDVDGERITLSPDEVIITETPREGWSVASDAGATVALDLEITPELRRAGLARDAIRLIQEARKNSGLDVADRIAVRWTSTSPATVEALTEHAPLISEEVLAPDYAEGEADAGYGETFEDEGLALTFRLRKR

ScIleRS = molecular target: T2, ScIleRS (Saccharomyces cerevisiae, UniProt P09436); test: ATP-PPi exchange inhibition, global fit; format: biochemical
T2 construct: gene ILS1; pET28b, E. coli Rosetta(DE3), Ni-NTA (His tag) and size-exclusion chromatography, monomer
T2 sequence (P09436 1-1072): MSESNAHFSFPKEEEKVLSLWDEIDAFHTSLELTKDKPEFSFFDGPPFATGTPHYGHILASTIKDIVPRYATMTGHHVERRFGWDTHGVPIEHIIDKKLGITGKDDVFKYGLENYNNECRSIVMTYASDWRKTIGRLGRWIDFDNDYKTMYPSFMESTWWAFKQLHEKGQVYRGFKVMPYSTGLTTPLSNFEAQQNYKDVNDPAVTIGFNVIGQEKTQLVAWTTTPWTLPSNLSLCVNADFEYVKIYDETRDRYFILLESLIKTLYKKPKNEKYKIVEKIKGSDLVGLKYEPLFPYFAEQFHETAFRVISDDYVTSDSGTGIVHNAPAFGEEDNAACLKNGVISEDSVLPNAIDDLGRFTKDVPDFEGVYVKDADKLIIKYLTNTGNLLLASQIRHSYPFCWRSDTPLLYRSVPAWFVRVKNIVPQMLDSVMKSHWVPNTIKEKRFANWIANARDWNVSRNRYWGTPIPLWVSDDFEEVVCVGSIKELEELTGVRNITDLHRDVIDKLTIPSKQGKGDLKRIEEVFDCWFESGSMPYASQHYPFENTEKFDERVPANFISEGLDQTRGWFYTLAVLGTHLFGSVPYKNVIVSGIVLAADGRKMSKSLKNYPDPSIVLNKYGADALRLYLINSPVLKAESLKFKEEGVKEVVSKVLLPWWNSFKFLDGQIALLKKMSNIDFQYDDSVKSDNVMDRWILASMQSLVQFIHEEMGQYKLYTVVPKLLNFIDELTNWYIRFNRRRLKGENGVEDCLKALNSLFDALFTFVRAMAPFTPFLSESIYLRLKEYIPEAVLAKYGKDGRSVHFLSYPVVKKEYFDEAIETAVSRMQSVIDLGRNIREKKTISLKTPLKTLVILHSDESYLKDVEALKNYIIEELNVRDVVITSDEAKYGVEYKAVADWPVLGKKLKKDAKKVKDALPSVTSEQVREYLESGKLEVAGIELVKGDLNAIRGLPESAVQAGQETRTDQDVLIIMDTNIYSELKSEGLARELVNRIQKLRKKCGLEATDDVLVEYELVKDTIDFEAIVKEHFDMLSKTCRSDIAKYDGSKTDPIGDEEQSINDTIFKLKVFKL

[1] = substrate: CC(C)[C@H](N)C(=O)O; test: ATP-PPi exchange (amino acid activation); format: biochemical, Streptomyces griseus; settings: 30 °C, pH 7.5, 4 mM ATP, 1 mM PPi, 20 mM MgCl2, no tRNA
Excerpt: (§1) ATP-PPi exchange (amino acid activation) on SgIleRS

[2] = substrate: CC[C@H](C)[C@H](N)C(=O)O; test: ATP-PPi exchange (amino acid activation); format: biochemical, Streptomyces griseus; settings: 30 °C, pH 7.5, 4 mM ATP, 1 mM PPi, 20 mM MgCl2, no tRNA
Excerpt: as §1

[3] = substrate: CC(C)[C@H](N)C(=O)O; test: ATP-PPi exchange (amino acid activation); format: biochemical, Saccharomyces cerevisiae; settings: 30 °C, pH 7.5, 4 mM ATP, 1 mM PPi, 20 mM MgCl2, no tRNA
Excerpt: (§2) ATP-PPi exchange (amino acid activation) on ScIleRS

[4] = substrate: CC[C@H](C)[C@H](N)C(=O)O; test: ATP-PPi exchange (amino acid activation); format: biochemical, Saccharomyces cerevisiae; settings: 30 °C, pH 7.5, 4 mM ATP, 1 mM PPi, 20 mM MgCl2, no tRNA
Excerpt: as §2

C/C(=C\C(=O)OCCCCCCCCC(=O)O)C[C@@H]1OC[C@H](C[C@@H]2O[C@H]2[C@@H](C)[C@H](C)O)[C@@H](O)[C@H]1O [mupirocin]
Ki (SgIleRS): 10 mM
Ki (ScIleRS): 0.028 mM

B1: SgIleRS (Streptomyces griseus subsp. griseus NBRC 13350) (protein)
chain: T1 sequence (B1W0J8 1-1047)
notes: ileS from genomic DNA in pET28b, E. coli BL21(DE3), Ni-NTA purified (His tag), ZnCl2 added during growth
kcat [1]: 19.3 ± 0.4 s⁻¹
kcat [2]: 20.6 ± 1.4 s⁻¹

B2: ScIleRS (Saccharomyces cerevisiae S288C) (protein)
chain: T2 sequence (P09436 1-1072)
notes: pET28b, E. coli Rosetta(DE3), Ni-NTA (His tag) and size-exclusion chromatography, monomer
kcat [3]: 8.6 ± 1 s⁻¹
kcat [4]: 11.4 ± 0.8 s⁻¹
